# Experimental data from US20130045219A1 (UCB, published 2013).
# Where two headings read alike, the source gives them in different places.
# T1: CD154 expressed on D1.1 Jurkat cells (UniProt P29965 1-261, limits assumed)
# T1 sequence (looked up): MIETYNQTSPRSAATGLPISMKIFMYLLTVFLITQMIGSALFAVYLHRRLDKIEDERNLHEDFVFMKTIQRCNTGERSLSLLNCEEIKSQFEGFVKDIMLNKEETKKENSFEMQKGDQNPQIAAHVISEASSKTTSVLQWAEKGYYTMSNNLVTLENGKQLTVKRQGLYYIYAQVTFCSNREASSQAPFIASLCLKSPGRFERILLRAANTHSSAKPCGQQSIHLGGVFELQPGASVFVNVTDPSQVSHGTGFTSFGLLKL
# T2: Myc-tagged CD154 (UniProt P29965 116-261, limits assumed)
# T2 construct: Captured on the ELISA plate by anti-Myc antibody 9E10; The order of tag and CD154 is not known; also called CD40L; not shown: Myc tag
# T2 sequence (looked up): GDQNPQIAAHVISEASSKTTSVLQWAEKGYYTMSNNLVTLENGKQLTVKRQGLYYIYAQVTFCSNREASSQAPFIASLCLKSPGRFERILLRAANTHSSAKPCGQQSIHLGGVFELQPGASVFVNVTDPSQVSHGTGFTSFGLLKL
# B1: chimeric 342 Fab′ (unlabeled 342 Fab′ of FIG. 29C) (Fab, V domains shown)
# VH: QVQLKESGPGLVQPSETLSLTCTVSGFSSTNYHVHWVRQPPGKSLEWMGVIWGDGDTSYNSVLKSRLSITRDTSRSQVFLKMSSLQTEDTATYYCARQLTHYYVLAAWGQGASVTVS
# VL: DIQMTQSPASLSASLGETVTVECRASEDLYYNLAWYQRKPGNSPQLLIYDTYRLADGVPSRFSGSGSGTQYSLKINTLPSGDVASYFCQQYYKFPFTFGSGTKLELK
# notes: also called ch342 Fab
# B2: 342 Fab′ (Fab, V domains shown)
# VH: EVQLVESGGGLVQPGGSLRLSCAVSGFSSTNYHVHWVRQAPGKGLEWMGVIWGDGDTSYNSVLKSRFTISRDTSKNTVYLQMNSLRAEDTAVYYCARQLTHYYVLAAWGQGTLVTVSS
# VL: DIQMTQSPSSLSASVGDRVTITCRASEDLYYNLAWYQRKPGKAPKLLIYDTYRLADGVPSRFSGSGSGTDYTLTISSLQPEDFASYYCQQYYKFPFTFGQGTKVEIKR
# B3: humanized 342 Fab, graft gL4gH1 (Fab, V domains shown)
# VH: B2 VH
# VL: B2 VL
# B4: soluble human CD154 protein (extracellular domain) (ligand)
# chain: T2 sequence (looked up)
# notes: also called sCD154; recombinant extracellular domain of human CD154
# B5: anti-CD154 antibody 381 Fab′ (Fab, V domains shown)
# VH: EVPLVESGGGLVQPGRSMKLSCVASGFTFSDYYMAWVRQAPKKGLEWVASISYEGSSTYYGDSVKGRFTVSRDIAKSTLYLQMHSLKSEDTAIYYCARHDDSPGYYFDYWGQGVMVTVS
# VL: DIQMTQSPTSLSASLGETVSIECLAGEDISNVLAWYQQKSGGSPQLLIYAANRLQDGVPSRFSGSGSGTRYSLKISGMRPEDEADYFCQQTFRYPLTFGSGTKLELK
# B6: anti-CD154 antibody 338 (Fab, V domains shown)
# VH: QVQLTESGPGLVQPSQTLSLTCTVSGFSLTSHHISWVRQPPGKGLEWVGVMWNDGGTLYNSALKSRPSISRDTSKSQVFLKMSSLQTEDTATYYCARGKMHYYVLDAWGQGASVTVS
# VL: DIQMTQSPASLSASLGETVTIECRTSEDIYSNLAWYRQRPGKSPQLLIYDTNRLADGVPSRFSGSGSGTQYSLKINSLQSEDVASYFCQHYSNFPWTFGGDTKLELK
# Assays:
# [1] = molecular target: B4; assay: Biacore (SPR): antibody or Fab' captured on immobilized anti-human IgG (Fc- or Fab'-specific) F(ab')2, recombinant extracellular domain of human CD154 titrated over it (Example 4); chimaeric Fab'
# Procedure: (§1) Catalogue Number: BR-1001-88, Biacore AB, Uppsala, Sweden. Buffer stored at 4° C. Immobilization buffer is Acetate 5.0 (being 10 mM sodium acetate pH 5.0). Catalogue number: BR-1003-51, Biacore AB, Uppsala, Sweden. Buffer stored at 4° C. Ligand capture: Affinipure F(ab′)₂ fragment goat anti-human IgG, Fab′ fragment specific (Catalogue number: 109-006-097) or Fc fragment specific (Catalogue number: 109-006-098), Jackson ImmunoResearch Inc (Pennsylvania, USA). Reagents stored at 4° C. […] Analyte: Recombinant extracellular domain of human CD154. Material was prepared at 2 mg/mL (40 μM) in phosphate-buffered saline, stored at 4° C., and diluted in HBE-EP running buffer for the assays. […] Regeneration Solution: 40 mM HCl prepared by dilution with distilled water from an 11.6 M stock solution (BDH, Poole, England. Catalogue number: 101254H). 5 mM NaOH prepared by dilution with distilled water from a 50 mM stock solution. Catalogue number: BR-1003-58, Biacore AB, Uppsala, Sweden. Assay Method: BIA (Biamolecular Interaction Analysis) was performed using a Biacore® 3000 (Biacore AB). Affinipure F(ab′)₂ fragment goat anti-human IgG, Fc- or Fab′-fragment specific (Jackson ImmunoResearch) were immobilized on a CM5 Sensor Chip via amine coupling chemistry to a capture level of ≈6000 response units (RUs). HBS-EP buffer (10 mM HEPES pH 7.4, 0.15 M NaCl, 3 mM EDTA, 0.005% Surfactant P20, Biacore AB) was used as the running buffer with a flow rate of 10 μl/min. Anti-CD154 antibodies or Fab fragments were used at concentrations such that, once captured by the immobilized anti-human IgG-Fc (or anti-human IgG Fab′) surface, gave a signal of ≈200 RUs. Human CD154 was titrated over the captured antibody, at various concentrations. 90 μL of CD154 was injected over the surface (association phase), followed by a 240 second dissociation phase, all at a flow rate of 30 μl/min. […] Background subtraction binding curves were analyzed using the BIAevaluation software (version 3.2) following standard procedures. Kinetic parameters were determined from the fitting algorithm.
# [2] = molecular target: T1, CD154 expressed on D1.1 Jurkat cells; assay: cell-based or functional assay
# [3] = molecular target: T1, CD154 expressed on D1.1 Jurkat cells; assay: flow cytometry: inhibition of the binding of hCD40-mFc-PE to CD154-expressing D1.1 Jurkat cells by serially diluted chimaeric Fab' (Example 5)
# Procedure: (§2) A flow cytometry-based assay was used to assess the binding of labeled CD40 to CD154-expressing D1.1 cells. D1.1 Jurkat cells (American Type Culture Collection) were maintained in RPMI 1640 medium (Gibco, 31870-025)) containing 10% (v/v) fetal calf serum (FCS), 2 mM glutamine (Invitrogen, 23030024), 1 mM sodium pyruvate (Invitrogen, 11360-039), 1% (v/v) D-(+)-glucose (Sigma, G8769) & 10 mM HEPES (Sigma, H0887). At time of assay, 100,000 D1.1 cells were incubated in 100 μL RPMI 1640 medium+10% FCS, in the presence or absence of serially diluted anti-CD154 antibody for 15 minutes at room temperature. 5 μL of a 1:75 dilution of hCD40-mFc-PE (Alexis Corp, ANC-504-050) was then added and incubated for a further 30 minutes at room temperature. After washing twice in phosphate-buffered saline (PBS) containing 1% (w/v) bovine serum albumin (BSA fraction V, Serologicals Proteins Inc, 81-068-5) and 0.02% (w/v) sodium azide (BDH, 103692K), cells were resuspended in 200 μL PBS/1% BSA/0.02% sodium azide and flow cytometry performed on a Becton Dickinson FACScan. The values for geometric mean fluorescence (FL2) were assessed in all cases.
# Myc-tagged CD154 = molecular target: T2, Myc-tagged CD154; assay: ELISA: Myc-tagged CD154 captured on anti-Myc antibody 9E10, biotin 342 Fab' titrated, streptavidin-HRP detection (Example 14)
# Procedure: In this assay, anti-Myc antibody 9E10 was coated onto an ELISA plate. Myc-tagged CD154 was captured by this antibody. […] The plate was washed and the amount of biotinylated 5c8 Fab bound was determined using streptavidin HRP as a secondary. The signal was graphed and fit using a either a one site binding hyperbola or a two site binding hyperbola curve fit in Prism software (Graph Pad).
# A titration of biotin 5c8 Fab′ on CD154 to determine the appropriate concentration for cross-blocking analysis was also performed (FIG. 29B).
# CD40:sCD154 complex = molecular target: T3, CD40:sCD154 complex (human, UniProt P25942 21-193, limits assumed); assay: Biacore (SPR): CD40hFc captured, ECD bound, then buffer or Fab injected; concentration not given (Example 10)
# T3 construct: also called CD40:CD154 complex; not shown: human Fc (hFc)
# [4] = molecular target: T1, CD154 expressed on D1.1 Jurkat cells; assay: flow cytometry competition binding assay: serially diluted antibody against biotinylated 342 Fab on CD154-expressing D1.1 Jurkat cells, streptavidin-R-phycoerythrin detection (Example 6)
# Procedure: A flow cytometry-based assay was used to assess the binding of anti-CD154 antibody to CD154-expressing D1.1 cells. D1.1 Jurkat cells (American Type Culture Collection) were maintained in RPMI 1640 medium (Gibco, 31870-025) containing 10% (v/v) fetal calf serum (FCS), 2 mM glutamine (BioWhittaker, 17-605E) and […] (Mediatech, 30002107). […] The cells were washed three times in FACS buffer with centrifugation at 290×g for 3 minutes in between washes. A 1:500 dilution of streptavadin-R-phycoerythrin conjugate (Jackson Immunoresearch, 016-110-084) in […] FACS buffer was added and the cells were incubated for one hour at 4° C. The cells were washed once and fixed in PBS with 3% formaldehyde at room temperature for 10 minutes. The cells were resuspended in FACS buffer and run on a FacsCalibur (BD). The values for geometric mean fluorescence (FL2) were assessed in all cases.
# [5] = molecular target: T1, CD154 expressed on D1.1 Jurkat cells; assay: flow cytometry: inhibition of the binding of hCD40-mFc-PE to CD154-expressing D1.1 Jurkat cells by serially diluted antibody (Example 5)
# Procedure: as §2
# [6] = molecular target: B4; assay: Biacore (SPR): antibody or fragment captured on immobilized anti-human IgG (Fc- or Fab'-specific) F(ab')2, recombinant extracellular domain of human CD154 titrated over it (Example 4)
# Procedure: as §1
# [7] = molecular target: T1, CD154 expressed on D1.1 Jurkat cells; assay: cell-based or functional assay; remark: listed apart in the source
# [8] = molecular target: B4; assay: Biacore; purified Fab captured on the chip, human CD154 extracellular domain as analyte
# [9] = molecular target: T4, CD40hFc (human CD40 fusion protein) (human, UniProt P25942 21-193, limits assumed); assay: Biacore (SPR), sequential injections: CD40hFc captured, then soluble CD154 (ECD); concentrations not given (Example 10)
# T4 construct: not shown: human Fc (hFc)
# T4 sequence (P25942 21-193 limits assumed): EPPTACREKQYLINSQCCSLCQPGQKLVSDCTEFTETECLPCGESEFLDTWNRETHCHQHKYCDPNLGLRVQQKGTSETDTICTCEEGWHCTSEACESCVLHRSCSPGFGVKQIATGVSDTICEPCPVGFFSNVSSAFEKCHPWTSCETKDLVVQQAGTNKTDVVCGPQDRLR
# T3 sequence (P25942 21-193 limits assumed, one chain of several): as the sequence (P25942 21-193 limits assumed) above
binder,measurement,setting,value
B1,Kd,[1],0.016 nM
same,IC50 of inhibition of ICAM-1 (CD54) upregulation on CD40-expressing Ramos B cells co-cultured with CD154-expressing D1.1 Jurkat cells,[2],0.053 µg/mL
same,IC50,[3],0.008 µg/mL
B2,EC50 (read off the curve),Myc-tagged CD154,~0.1 nM
same,binding result,CD40:sCD154 complex,no binding
same,IC50,[4],0.024 nM
same,IC50,[5],0.012 µg/mL
same,Kd,[6],0.028 nM
same,IC50 of inhibition of ICAM-1 (CD54) upregulation on CD40-expressing Ramos B cells co-cultured with CD154-expressing D1.1 Jurkat cells,[7],0.04 µg/mL
B3,Kd,[8],0.00455 nM
same,koff,[8],6.97e-05 s⁻¹
same,kon,[8],1.53e+07 M⁻¹ s⁻¹
B4,binding result,[9],binds
B5,Kd,[1],0.005 nM
same,IC50 of inhibition of ICAM-1 (CD54) upregulation on CD40-expressing Ramos B cells co-cultured with CD154-expressing D1.1 Jurkat cells,[2],0.1 µg/mL
same,IC50,[3],0.022 µg/mL
B6,Kd,[1],0.015 nM
same,IC50 of inhibition of ICAM-1 (CD54) upregulation on CD40-expressing Ramos B cells co-cultured with CD154-expressing D1.1 Jurkat cells,[2],0.192 µg/mL
same,IC50,[3],0.006 µg/mL
